Data published in the nanobody polyreactivity screen of Harvey et al. (2022).

Experiment: yeast display, Sf9 membrane polyspecificity reagent, FACS + sequencing; frameworks hold sequencing errors
Method in brief: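 A nanobody's polyreactivity label depends on the gate it was sorted from. Yeast display cells were stained with 10% biotinylated, detergent-solubilized Sf9 membrane reagent for 1 hour at 4 °C, enriched on streptavidin microbeads and sorted by FACS. The low and high (top ~1%) gates were set on anti-HA fluorescence for expression and streptavidin fluorescence for reagent binding.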

Row | Sequence | polyreactivity (PSR sort gate)
1 | QVQLVESGGGLVQAGGSLRLSCAASGPIFVYYARGWYREAPGKEREFVAAISASGGSTYYADSVKGRFTISRDTAKNTVYLQMNSLKPEDPAVYYCAADRLRNRPRGLREYYWGQGTQVTVSS | low polyreactivity
2 | QVQLVESGGGLVQAGGSLRLSCAASGYIFAVYAMGWYIQAPGKEREFVAVITWRGGSTYYADSVKGRFTISRDNAKNTVYLQMNSLKPEDTAVYYCADDVYAQYDYWGQGTQVTVSS | high polyreactivity
3 | QVQLVESGGGLVQAGGSLRLSCAASGFIFDYNAMVWYRQAPGKERELVAAISISGGGTYYADSVKGRFTISRDNAKNTVYLQMNSLKPEDTAVYYCATAGRYDAYDYWGQGTQVTVSS | low polyreactivity
4 | QVQLVESGGGLVQAGGSLRLSCAASGITFVDYAMGWYRQAPGKERELVAAITTGGSTNYADSVKGRFTISRDNAKNTVYLQMNSLKPEDTAVYYCNKRPVILYDYWGQGTQVTVSS | low polyreactivity
5 | QVQLVESGGGLVQAGGSLPLSCAASGRTFRSNAMGWYRQAPGKERELVAAISWSGGSTYYADSVKGRFTISRDNAKTSVYFQLNSLKPEDTAVYYCAAYYYTRFEWGQGTQVTVSS | high polyreactivity
6 | QVQLVESGGGLVQAGGSLRLSCSASGSTFRGYAMGWYRQAPGKDRELVAAISWSGGSTYYADSVKGRFTISRDHAKNTVYLQMNSLKPVDTAVYYCNAVGYLDFEWGQGTQVTVSS | low polyreactivity
7 | QVQLVESGGGLVQAGGSLRLSCAAYGSTITYYPMGWYRQAPGKERELVAAISGSGRTHYADSVKGRFTISRDNAKNTVYLQMISLNPEDTAVYYCNARQYTYNYAFTRCKYDYWGQGTQVTVSS | high polyreactivity
8 | QVQLVESGGGLVQAGGSLRLSCGASGRTFKLYAMGWYRQAPAKERELVATIRRSGTRTYADSVKGRFTISRDNAKNTVYLQINSLKQEDTAVYYCAATTYAYVYHRYDYWGQGTQVTVSS | high polyreactivity
9 | QVQLVESGGGLVQAGGSLRLSWAASGITFDDYAMGWYRPAPGKERELVAAITWSGDSTYYADSVKGRFTISRDNAKNTVYLQMNSLKPEDTAVYYCAAVSYYWGQGTQVTVSS | high polyreactivity
10 | QVHLVESGGGLVQAGGSLRLSCAASGGIFYTYAMGWYRQAPGKEREMVAAISWRGGSTYYADSVKGRFTISRDNAKNTVYLQMNSLNPEDSAVYYCNKVTDYYYQIYWSYPYFTPDYFWGQGTQVTVSS | high polyreactivity
11 | QVWLQESGGGLVQACGSLRLSCAASGTISRDIFMGWYRQAPGKEREFVATIAQGGITNYADSVKGRFTISRDNAKNTVYLQMNSVKPGDTAVYYCAARDGNCYWFYYGGQGTQVTVSS | high polyreactivity
12 | QVQLVESGGGLVQAGGSLRLSCAASGLIFVPYAMGWYRQAPGKERELVAAINSGATTYYADSVKGRFTISRDNAKNTVYLQMNSLKPEDTAVYYCAARSRFTESSRYYYWGQGTQVTVSS | high polyreactivity
13 | QVQLVESGGGLVQAGGSLRLRCAASGFTFQNYVMGWYRQAPGKESELVAAINSGGRTYYADSVKGRFTISRDYANNTVYLQMNSLKPEDTAVYFCKDRRGHYWGQGTQVTVSS | high polyreactivity
14 | QVQLVESGGGLVQAGGSLRLSCAASGSIFGEYAMGWYRQAPGKERELVADITTGGNTNYADSVKGRFTISRDNAKNTVYLQMNSLKPEDSAVYYCYAFGNTYGYWWFGYWGQGTQVTVSS | low polyreactivity
15 | QVQLVESGGGLVQAGGSLRLSCAASGSNSFLYTMRWYRQAPGKERELVAAITGSTASTYYADSVKGRFTISRDNAKNTVYLQMNSLKPEDSAVYYWAAYWYAEGYWVSRDYWGQGTQVTVSS | low polyreactivity
16 | QVQLVESGGGLVQAGGSLRLSCAASGRTLWVYAMGWYRQAPGKERELVAAITSSGVSTDYADSVKGRFTISRDNAKNTVYLQINSLKPEDTAVYYCAKRYWSRYAQYDYWGQGTQVTVSS | low polyreactivity
17 | QVQLVESGGGLVQAGGSLSLSCAASGRTFWVYAMGWYRQAPGKERELVAAIRRGGITNYADSVKGRFTNSRDNAKNTVYLQMNCLKPEDTALYYCDTDKYGYLTRYYYWGQGTQVTVSS | low polyreactivity
18 | QVQLVESGGGLVQAGGSLRLSCAASGFTFYTYTMGWYRQAPGKERELVAVISRSGGSTYYADSVKGRFTISRDNAKNTVYLQMNSLKPEDTAVYYCNKVGIYGSRSRYDSWGQGTQVTVSS | high polyreactivity
19 | QVQLVESGGGLVQAGGSLRLSCAASGYISYVNAMGWYRQAPGKERELVAAISGRGGSTYYADSVKGRFTISRDNAKNNVYLQMNSLKPEDTAVYYCAADLYYSYYWGQGTQVTVSS | low polyreactivity
20 | QVQLVESGGGLVQAGGSLRLSCAASGSTFNRYAMGWYRQAPGKERELVAAITSTGGTNYADSVKGRFTISLDNAKNTVYLQMYSLKPEDTAVYYCAKRWLRGRSNYWGHGTQVTVSS | high polyreactivity
21 | QVQLVESGGGLVQAGGSLRLSCAASGSTFVSYAMGWYRQAPGKERELVAAISISDSSTYYADSVKGRFSISRDNAKNTVYLQMNSLKPEDTAVYYCNRYDFWGQGTQVTVSS | low polyreactivity
22 | QVQLVESGGGLVQAGGSLRLSCAASGSIFQIYAMGWYRQAPGKERELAAAINSGGITKYADSVKGRFTISRDNAKNTVYLQMNSLKPEDTAVYYCAKRYGWPYGRFDYWGQGTQVTVSS | low polyreactivity

Row | Sequence | polyreactivity (PSR sort gate)
23 | QVQLVESGGGLVQAGGSLRLSCAASGSTFDSNVMGWYRQAPGKEWELVAAISIGDSTNYADSVKGRFTISRDNAKKTVYLQMNSLKPEDTAVYSCNATYSRGGYWYFGFDWGQGTQVTVSS | low polyreactivity
24 | QVQIVETGGGLVQAGGSLRLSCEASGSTFRNYAMGWYRQATGKERELDAAISSGGSTNYADSVKGRFTISRDNAKNTVFLQMNSLKPEYTAVYYCAAKAWYYPGSRIYYQYYYWGQGTQVTVSS | high polyreactivity
25 | QVQLVESGGGLVQAGGSLRLTCAASGRTYFYNAMGWYIKAPGKERELVAAISTNGGSTYYADSVNGRFTISRDNAKNTVYLQMNSLKPEDTAVYYCNTYAKPHRSGGGLGGHYYWGQGTQVTVSS | low polyreactivity
26 | QVELVESGGGLDQAGGSLRLSCAASGFIFRWYAMGWYRQAPGKERELVAAITRGTRTNYADSVKGRFTISRDNAKNTVYLQMNSLKPEDTAVYYCAADFSRDAYRNYYYWGQGTQVTVSS | high polyreactivity
27 | QVQLVESGGGLVQAGGSLRLSCAASGFTFYRNAMGWSRQAPGKERELVAAISRGGRTYYADSVKGRFTISRDNAKNTVYLQMNSLKPEDTAVYYCAVGYSGYGSSMDYWGQGTQVTVSS | high polyreactivity
28 | QVQLVESGGGLVQEGGSLLLSFAASGSTFGYYAMGWYRQAPGKEREFVAAISDSGDGTYYADSVKGRFTISRDNEKNTVYLQMNSLKQEDTAVYYCAAEAPYYFGWWYGYKYDSWGQGTQVTVSW | high polyreactivity
29 | QVQLVESGGGLVQAGGSLRLSCAASGSTSDINAMGWYRQARGKEWQLVAVITDSSNTDYADSVKGRFTISRDNAKNTVYLEMNSLKPEETAVYYCAADRDEPDPYDYWGPGTQVTVSS | low polyreactivity
30 | QVQLVESGGGLVQAGGSLRLSCAASGFIFALYTMGWYRQAPGKERELVARIRGGGRTNYADSVKGRFTISRDNAKNTVYLQMNSLKPEDTAVYYCNARKTVGMDYWGQGTQVTVSS | low polyreactivity
31 | QVQLVESGGGLVQAGGSLRLSCAASGSTFFKYDMGWYRQAPGKDRELVAVITWSGGTTFYADSVKGRFTFSRDNAKNTVYLQMNSLKPEDTAVYYGAADYYGYRYDYWGQGTQVTVSS | low polyreactivity
32 | QDQLVESGVGIVQAGRSLRLSCAASGFTFSGYAMGWDRQAPGKERELVAAINWRGDSTYYADSVKGRFTISRDNAKNTVYLQMNSLKPEDTAVYYCNVVLGPQRYSTDYGYWGQGTQVTVSS | high polyreactivity
33 | QVQLVESGGGLVQAGGSLRLSCDASGITFASYAMGWYRQAPGKERELVAAISWGGSRTYYADSVKGRFTISRDNAKNTVYFQMNSLKPVDTAVYYCNAHTRYGPDYSYYYWGQGTQVTVSS | high polyreactivity
34 | QVQLVESGGGLVQAGGSLRLSCAASGFTFYSNAMGWYRQAPGKERELVARITKRGGSTYYADSVKGRFTISRDNAKNTVYLQMNSLKPEDTAVYYCAADDGSDAEYYYWGQGTQVTVSS | high polyreactivity
35 | QVQLVESGGGLVQAGGSLRLSCAASGSIFGFYDMGWYRQAPGKERELVAAITTGGSTYYADSVKGRFTISRDNAKNTVYLQMNSLKPEDTAVYYCAKERWFPYERNDYWGQGTQVTVSA | low polyreactivity
36 | QVQLVESGGCLVQAGGSLRLSCAASGSTFVYNTMGWYRQAPGKERELVASISSDGNTYYADSVKGRFTISRDNAKNTVYLQMNSLKPEDTAVYYCAARYYYDWRFVGYDYWGQGTQVTVSS | low polyreactivity
37 | RVQLQESGGGLVQAGGSLRLSCAASGTIFIRGDMGWYRQAPGKEREFVASIDTGSNTYYADSEKGRFTISRDNAKNAVYLQMNCLKPGDTAVYYCVVDYQLSGRLRYWGQGTQVTLSS | low polyreactivity
38 | QVQLVESGGGLVQAGGSLRLSCAASGFTFYKNAMGWYRQAPGKERELVATISSGGSTYYADSVKGRFTISRYNAKNTVYLQLNSLKPEDTAVYYCAARVHHGYYSISYYYWGQGTQVTVSS | high polyreactivity
39 | QVQLVESGGGLVQAGGSLRLSCAASGRIIKRYAMGWYRQAPGKERELVAAISASGSSTYYADSVKGRFTISRDNAKNTVYLQMNSLKPEDTAVYYCAAWAYSPSASYDYWGQGTQVTVSS | high polyreactivity
40 | QVQLVESGGGLVQAGGSLRLSCAACGSIFEAYAMGWYRKAPGKERELVAVINYSGGSTYYADSVKGRFTISRDNAKNTVYLQMNSLKPEDTAVYYCAADTVRPWYAYKAHDYWGLGTQVTVSS | low polyreactivity
41 | QVQLVESGGGLVQAGGSLRLSCAASGFTFGDYAMYWVRQAPGKGLEWVSSIDSRGGSTYYADSVKGRFTISRDNAKNTVYLQMNSLKPEDTAVYYCAKPGNHRYDYWGQGTQVTVSS | high polyreactivity
42 | QDQLVESGGGIVQAGGSIRLSCAASGNTFGWYAMGWYRKAPGKERELVASISSSGSTNYADSVKGRFTISRDNAKNTVYLQMNSLKPEDTAVYYSNADLTQYLGPVYEYVYWGQGTQVTVSS | low polyreactivity
43 | QVQLVESGGGLVQAGGSLRLSCAASGSIFYGNAMGWYRPAPGKERELVAGITSGVGTNYADSVKGRFTISRDNAKNTVYLQMNSLKPEDTAVYYCNARYVYWIKGHDYWGQGTQVTVSS | high polyreactivity
